What is called Kd is a measure of binding affinity in units of concentration.

This assay has as its target recombinant human protease-activated receptor 1 with GST tag (GST-PAR1) (human) (UniProt P25116). Kind of assay: SPR; BIAcore X100; GST-PAR1 (10 ug/mL) captured on anti-GST antibody immobilised on a CM5 chip (about 854 RU); running buffer 50 mM Hepes pH 7.0, 0.01% CHS, 0.1% CHAPS, 0.33 mM DOPC:DOPS; captured GST as blank; analytes injected at 125 to 1000 nM, 30 uL/min; single site model. Background: Surface plasmon resonance follows binding to a sensor surface in real time, without labels.

On to GARASVLSGGELDRWEKIRL [F1 peptide (p17 N-terminal sequence, aa 2 to 21)], for which the Kd worked out at 46 nM.

The values are drawn from PMC8203498.
